Assay: Activity of AsGT2 towards salicylate (radioactive TLC assay and LC-MS assay)
Format: biochemical
Set-up: key: A “+” denotes activity
Settings: acceptor substrate salicylate; sugar donor L-arabinose; recombinant AsGT2 expressed in E. coli
Method: Radioactive assays with a complex acceptor substrate were used to detect low level activity with pure or enriched substrates. The assays contained 4 μl ^14C-UDP-glucose, 25 μl 50 mM potassium phosphate buffer pH 7.6, 0.25 μl 100 mM acceptor substrate in DMSO, 5 μl of the dialyzed protein preparation, and 3 μl 10 mM DTT. The reaction proceeded at 28 degrees Celsius for 2.5 hours shaking gently before stopping by the addition of 50 μl chloroform:methanol (2:1). The aqueous phase was extracted three more times with chloroform methanol and the solvent phases were pooled. The extracts were dried down at 60 degrees Celsius and resuspended in 40 μl of chloroform:methanol. The aqueous phase was dried down also and resuspended in water. A silica-gel TLC plate was loaded with 15 μl of the extracts and chromatographed with chloroform:methanol:water (13:6:1) against standards.
The acceptor substrates tested were β-amyrin-arabinoside, benzoic acid and salicylic acid. The sugars donors tested were D-glucose and L-arabinose.
To confirm the chemical structures of the products visualized by the radioactive assay a non-radioactive LC-MS assay was developed. […] Reactions were stopped by the addition of 100% methanol, which was then evaporated from the reaction at 50 degrees Celsius, and were analysed by LC/MS/MS using reversed-phase chromatography. […]

B1: AsGT2: family 1 glucosyltransferase from Avena strigosa (SEQ ID NO:6), expressed in E. coli and purified (protein, listed as Avena strigosa)
chain: MGAEWEHVSDIHVLLLPYPVQGHINPMLQFGKRLAHIGGVGVRCTLAITPYLLRQCQDPCPGAVHLVEISDGFDSAGFEEVGDVAAYLAGMESAGSRTLDELLRSEAEKGRPIHAVVYDAFLQPWVPRVARLHGAACVSFFTQAAAVNVAYSRRVGKIEEGLPAGFEAEDLPTFLTLPLPYQDMLLSQFVGLDAVDHVLVNSFHELQPQESAYMESTWGAKTVGPTVPSAYLDKRITDDVSYGFHLYTPMTATTKAWLDAQPPRSVTYVSFGSMATPGPTEMAEMAEGLHSSGKAFLWVVRASEASKIPDGFQERVGGRGLVVTWVAQLEVLAHGAIGCFVTHCGWNSTMEALGAGVPMVAVPQWSDQPTNAKFVEDVWCVGVRARRDPEGVVRREELERCIREVTGDDKYACNALDWKEKSKRAMSQGGSSDMNITEFLQALRRSRKSYEAKPIEPLLVGLDA
- Activity of AsGT2 towards Salicylate, L-Ara: +
